According to the domain aggregation screens of Martell et al. (2025):

Assay: soluble fraction after stress (log2 fold change); higher = more stays soluble; pooled small domains, quantitative proteomics
Settings: stress: 50 degC
Outline: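 The stress applied to every library was 50°C. These custom libraries of small protein domains were pooled and measured at high throughput with quantitative proteomics as the read-out. Aggregation propensity is expressed as the base-two logarithm of the fold change in how much of each protein remains soluble. The higher the value, the more of that protein stays in solution.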

| Sequence | soluble fraction (log2) |
| --- | --- |
| HMEAPPHEALSNREFQVLQLLSQGRSVTQIAHQLTLSANTISTYRARIFDKLGLHNPADLYAYAARHGLM | -0.676 |
| HMTEKIEWYKEVLDLEPNSKIFFPLAKMLEKEGELEEARRVLAEGVSRHEEFLEARLFYISVLSRL | -0.169 |
| HMIDTLEYIISEESKGLRADQAITMVNGEFSRSLIQKWIKKGSILVNGKKIKPRDILNLNDKVTINPEEN | -0.0699 |
| HMKEDNPIVLINLQAKEGEWVFKGTGLPYVGKYHQHKNGEYMIGIGVLNLNHELKPDEIIIPNPNK | -0.109 |
| HMQMMDATLKIPPSMGKLRGTLYELNSVTSEDVDENGQLALHVRLSSVDWQRLKKRFDSNLDELIVQKN | -0.0668 |
| HMDSEQLSGLVNMGFSVYQAKTALEMFDNDIERAANYL | -0.425 |
| HMRPKAIFVDVDDTLVRSVGQTRIPMPAVIAHIRRLHDAGHQLYLWSSGGADYARASAEELGIGQYFQAFL | -0.26 |
| HMNLESNQYVIDISDSQVINKDEFETILNQNKTKDIVIKSNNNVTFTFEKGSMIGAEGKDNYDFSSQVNY | -0.0368 |
| HMTGLSAQILAKLRDNHGVLPVSDKSDPAVISNLFGVSKGNFKKAIGGLYKEGQIVIHADRIEL | -0.0576 |
| HMNEKLRNYIDTLFEHAPTTVRAVELKEEMFQNLTDKYNDLIAQGKSEEAAFNIAVASIGDVDSLIAGLS | 0.219 |
| HMNDFVTVPDLQGIFYSEAIKKIDKMGLKEGSIQFVNQDKFLPNTVLNQNPKEGTKVSQDSPINLIIS | 0.0352 |
| HMYHADLIGLRVETAAGEKLGTVKAVHNFGAGDVIEITGAEDKDGLMVPFTAEVVPEVDIENGRIVVS | -0.331 |
| HMADLTEEQKTLFRLIRDLQPVSSKTLLENSGFTRSTQTRLLNGLIEKQIVIRTGNGPATRYSLR | -0.246 |
| HMLPSWPGVSEFEVARLLRRGRARGSLTLDEVIDVVRDAELTSELIAGIRSSLRAEGIDFEET | -0.475 |
| HMNLVGGKINSLMTTKNVTIQDLSERSGLTVSQIELLLSGDKVPSLAVLIKIARGLGVRVGTFL | -1.3 |
| HMHRAKRTKAQTQSSLESIEGIGPKTRKQLLVHFGGLAEVKAASVSELQKVKGISLDKAQKIYDFFHGS | 0.00473 |
| HMDISRMNLSQTERAVLSVLDSQPLHTEEIIASADLRAGAIHSALISLQLKGLIKQLPGNLYVK | -0.0722 |
| HMDELVYVPNITGKTVEEARTELQKRDLGLNIAGHQFSDEFGKGRIISQDPAAGSRLKVNRSISVIVSSGQ | 0.206 |
| HMDIYKKFIIPATYFGSRLDHVLSELLPELSRSKIQNMIKQNLVMINGNHAAQKQKVVGDEEIIIKDI | -0.0556 |
| HMRASQGRNELILSLLRGHELSILELLEGLEKQGVRVARPTLTKDLNELVSRGSVEATAPPRSKNRTYRIP | -0.612 |
| HMTYYEGYYRKNQKGFGFVIVDGRDEDIYIDAKNMNGALNNDLVVVEELKGQNGKKTEGRVVKVLKKE | -0.185 |
| HMGRKRLADYGLNDTEQKIVRKIADGLSNREIAQALYLSEGTVKNYITDILGKLELRDRTQIAIFYLREIG | -0.0293 |
| HMVEKRLFPQISDAGKRLDLFLAGALAISRTMVVKIIKDGGVLVNGKAAKASYRLAGDEELLVSYEEP | 0.395 |

| Sequence | soluble fraction (log2) |
| --- | --- |
| HMTKQNVVPLMYRMIDTLEQFIKADVPFNIETRLARVERLRETMVSSSVTTSEKFRQVLEAYTIETD | -0.924 |
| HMDDPDALITDSQLKAIHVLLGKLKIDDNLKHAYIADVLQLKDIPETLKTLTKHQGSTIIERLNLLIKDA | 0.0419 |
| HMERQILFTKEDLIEFGLSGGTDSRKRRDVLGHILGIGYSNSKQFLNRLNNFGVTREEFLSAIERIG | -0.778 |
| HMIQTKNVTFTINEKTKIANIPLKSLKILSQEDNRITLSYEKNSLKIDEIISYFSDKNINILDITTD | -0.451 |
| HMSWDNELLERAHKIIELYPQKRSALGPLLYLAQEKDGFISDDSIVEISNLVDITEVQVKSVSSFYSMY | -0.268 |
| HMIDFIGLEAKLLSTISGEKMGNAEVIVDGNVMNIYVKSLDTSEIKFRENVLIIKQSDDKNYYLVAKP | -0.453 |
| HMIPSGISEHPISKLPLSMSIIHRLELAGIKTIGDITGENFSRLQEIPRIGKVTAKRILEAIQSYSEQLP | -0.15 |
| HMLPVDALFAQHPALIVTLGQTEKLKHGAAIRDWHFADGTYRVYSETGEFLLLGTVKGQILTTVKSFFE | -2.08 |
| HMQSREISYSEFVTAVEAGDVRNVTLDGEQVRFRRADGSDYVTIRPEDAEVTKLLMANDIPVRAEP | 0.169 |
| HMPKITTIHIDPEKISKVIGPGGKTVKKIIEETGAKIDIEDTGKIFIAAVNTEAANKAIDMINGIVA | 0.103 |
| HMDPAFAQHHDRALSILHSRGYEVHDSDTDLHWARPVLEFEAYKGSLEYKIVMSYPDLNIIEERVD | -1.06 |
| HMLISKNLLGFTIKNTSGVTFGTLKDIMWLPSNDVYVIDNNGKEYLIPVISEIVKSINYDKGSITIFP | -0.352 |
| HMKKYISEEQAKQAALETAGGGSVVKIKFTTDDGIKVYEIDIINGNYEYEITVHAETGKILDVDKERIH | -1.04 |
| HMSYLELENLAEDIKATYDNLSTDLREVFRLSDIEGLSYEEISNKMNIPIGTVRSRLHRARETLLRIFNN | -0.933 |
| HMSASSEALKTAVRKVLLNNRMTQDRMARDAGLSGSALSQWLHGKYQGDVPALEGRLAAWLADTQAS | 0.0546 |
| HMTEEELLERLDAVITEYKGKPGALIPVLQLAQGIFGYLPEVALKHIARQLDKPYSEVAGVVSFYSFFTT | 0.0488 |
| HMAEERVLSVPQSLAGERLDAALASLMPDYSRSRLASWIKEGLVTVDGAGAMPKQKLWGGETLRVQAQPT | 0.463 |
| HMQGLIGEQKAIQIALSRVPGAKPEHVRELKLDYDDGMQLYEGEIFYNFREYEFEINAVTGEVVGWEI | -1.6 |
| HMANKTISMTTLKLVIQQLSKGISRQSISAQYHISRNTIKKYEKRIKAMDMKIEDILKLSDEEISNLLQ | -1.68 |
| HMFERINLIGVNGTTKKRSALVRLLDGEIVKIGVGDSLNGGQVVDISPATLTYLKSGKSIMLTLPK | -1.03 |
| HMGRLTTKIVLYDRIENIVPERRKELVADIEKRIGVKVEVLEIGHVDFVRDAAWLKVSYYLAPGE | -1.06 |
| HMQVTDADFDQIRLAVLSQLKQNSLTVAELLKIIPFKEQKVMPVIRFLIDNRVLEHGTDMKLTVGNSVK | 0.0195 |
| HMAENPAYTKGVVNRLYKIRATPYYSYSYNVDQKTYEGRGKQYGEYENLHIGDTITVYYQRSNPSNSEA | -0.414 |

| Sequence | soluble fraction (log2) |
| --- | --- |
| HMNEFSYLSELGSEKGDLIKGLQLVQSREGYVSDDAIRAISKHFSIAEAEVEGVLTFYAQFK | -0.572 |
| HMRTVPEALLGRAYETAETAIVLEGLEAKRTDVFHPTIGNGTVIRLEPASGSQVSAGGVIEIFVSKGTETI | -0.305 |
| HMDTRKEREIALYEAALRLIASGVNPAAMKVQQIADEAGIGKGTVYEYFASKEEILHGMALH | -0.241 |
| HMEQLNKNIKFDNFLESLNFINKVSEVAEEENHHPDLKFGWGYADITIFTHAIKGLSEGDFVLAAKIDVI | 0.269 |
| HMYSDIERAMTNAPEQFANKQAVLDFLNKNRIKKSEVDDYRIASLLKLYDDASPISKTEIISQVRT | 0.149 |
| HMIKEYEVLNYVTYEYDEIKKKLEEDFGIIVLMKEAYSDETPAGIIMDQDVEQGRIFKEGATNTITFTVS | -0.434 |
| HMAEPRVQEVYFEFDGKQVEAGQVVSLIEQAYKNEGHQIGRIKDLKVYINSEEGKAYYVINGDDGEGKYIE | 0.0517 |
| HMSARRHAVKHLDANQLQTRVARMLSEFGLTAKVSKDPNSNALIIDGAPEAQRIAAQLITTIDKE | 0.091 |
| HMDDFPLKRGSKGNRVTLLQNALVKKYGAGILPKYGVDGMFGKEVEAALVHAKIPTTINEANYTKIV | 0.0897 |
| HMGTAGLSPWHKIAVLMIALGPEGASELMRHFGEDEVEQVVQAIADLKNVPSELQDAVLLEMEGALQEG | -0.00851 |
| HMTLQEFYARVGGDYNATLSRLPSEALVKKFILKYPGDPSFAQLKDALAAQDWELAFRASHTLKGVAQN | -1.3 |
| HMNKITIEEAKSIALKHSNLDESQVSFIRSEYDFDNGIEKYEIEFYYNNNKYEYEINAKTGDIISYDYDI | -0.292 |
| HMSLGSSLFHARKKSGLTQEAVAEKLGVSRQTISKWETNETLPDIRQSKGLAMLYHMTLDELIE | -0.223 |
| HMYYNDEELDGYRGTPSDAYSDNAVEEFREVLYTLREDEVSGWVRSLQLRGIFLPDAIKDETFLI | -1.59 |
| HMLQARKFTHIQGYEFEAEFLRTNGEFVELQDPQGRKKWFPISNFIQDDKDFIKEQAGNLSS | -0.0494 |
| HMSKITNALLMMKLLSNGKVYSVKELSEELGVTERMVRNYKEQLEMSGYIIESFKGPGGGYFINKN | -1.61 |
| HMRTDTIINSGGLKINPEEVENEILKSLGDNNFFIDKIKNDKFGEEIILIALKKIKINLLIESLNLI | 0.0394 |
| HMKSKPRVPFGSLVEMGILKPGSILFDPKGKIKTKVMVDGSIKYKETEGSIHKVAAQIMGTESYNGWTYW | 0.355 |
| HMNPVVATTIILDGEIIKDNLAEANLSEEWLLEELKRQNFNDVKEVFYAEWLDGKQLFAYPYTK | -0.224 |
| HMLKLPVEYLNLKYQLMHATSLDKPNNLMKLDEKLGKIIDVYYDDLPVDEQRVVDILQSKLYSY | -0.996 |
| HMQLPTPEDLKKRRNELGLTQSDLAKRAGVSQPLIARIESGDVDPRLSTVRKILDAFEEVEKEQQ | 0.0795 |
| HMTKVIEFLVSDEEHGVRADKAFVSHNQKLSRSYFKKLILNGNLYINNKVNLDPSYKLIKGSTVRIILPE | -2.07 |
| HMGGPEVLELEDVKVGSPGPDEIKVTNHAIGLNYIDTYHRSGLYPLKLPSGIGLEAAGKVEEIGSNV | 0.0604 |
